Source: patent US20060171941A1

How the values were obtained:
[1] = biological target: anti-V region antibodies to CC49 in the serum of patient one; assay: SPR competition for patient one serum anti-V region Abs
[2] = biological target: tumor-associated glycoprotein-72 on the cell surface of Jurkat cells; assay: flow cytometry, 0.5 ug Ab on Jurkat cells expressing TAG-72
[3] = biological target: bovine submaxillary mucin (TAG-72 positive) (bovine); assay: competition RIA against 125I-mCC49 on BSM; relative affinity constant, modified Scatchard
[4] = biological target: anti-V region antibodies to CC49 in the serum of patient one; assay: SPR competition, soluble competitor Ab against immobilized HuCC49 for patient one serum anti-V region Abs
[5] = biological target: anti-V region antibodies to CC49 in the serum of patient two; assay: SPR competition, soluble competitor Ab against immobilized HuCC49 for patient two serum anti-V region Abs

Binder | concentration required for 20% inhibition [1] [nM] | percent inhibition at 1000 nM [1] [%] | % of gated cells [2] [%] | mean fluorescence intensity [2] | Ka [3] [M⁻¹] | IC50 [4] [nM] | IC50 [5] [nM]
HuCC49V10 (antibody, V domains shown) VH: QVQLVQSGAEVVKPGASVKISCKASGYTFTDHAIHWVKQNPGQRLEWIGYFSPGNDDFKYSQKFQGKATLTADTSASTAYVELSSLRSEDTAVYFCTRSLNMAYWGQGTLVTVSS VL: DIVMSQSPDSLAVSLGERVTLNCKSSQSVLYSSNSKNYLAWYQQKPGQSPKLLIYWASTRESGVPDRFSGSGSGTDFTLTISSVQAEDVAVYYCQQYYSYPLSFGAGTKLELK | 80 | < 30 | 25.8 | 62.9 | 5.9e+07 | > 1000 | 7.7
humanized CC49 (CDR-grafted) (antibody, V domains shown) VH: QVQLVQSGAEVVKPGASVKISCKASGYTFTDHAIHWVKQNPGQRLEWIGYFSPGNDDFKYNERFKGKATLTADTSASTAYVELSSLRSEDTAVYFCTRSLNMAYWGQGTLVTVSS VL: DIVMSQSPDSLAVSLGERVTLNCKSSQSLLYSGNQKNYLAWYQQKPGQSPKLLIYWASARESGVPDRFSGSGSGTDFTLTISSVQAEDVAVYYCQQYYSYPLTFGAGTKLELK | 2 |  |  |  | 1.16e+08 | 6 | 2.2
